According to article PMC9436372:

Molecular target: T1, ATF3 (recombinant human) (Homo sapiens, UniProt P18847 1-181)
T1 sequence: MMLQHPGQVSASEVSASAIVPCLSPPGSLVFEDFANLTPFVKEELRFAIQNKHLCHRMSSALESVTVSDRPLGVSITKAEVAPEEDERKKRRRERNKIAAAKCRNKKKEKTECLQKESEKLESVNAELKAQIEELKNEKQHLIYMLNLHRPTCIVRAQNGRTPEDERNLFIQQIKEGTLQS
Experiment: EMSA

B1: HyATF3-2 probe (dsDNA)
DNA 1: TTATGTTTACTGACGTTTCCCTGCCTTCTA
DNA 2: TAGAAGGCAGGGAAACGTCAGTAAACATAA
  binding result: binds

B2: HyATF3-1 probe (dsDNA)
DNA 1: GAAAAAAACGTCAGAAAACAAGTGACGTATTATA
DNA 2: TATAATACGTCACTTGTTTTCTGACGTTTTTTTC
  binding result: binds
